Test results from patent US20230333108, “APTAMER-BASED POINT-OF-CARE ASSAY DEVICES AND METHODS” (The Regents of the University of California, published 2023).

B1: N-aptamer (anti-N protein aptamer) (ssDNA)
DNA: TTTTTTGCAATGGTACGGTACTTCCGGATGCGGAAACTGGCTAATTGGTGAGGCTGGGGCGGTCGTGCAGCAAAAGTGCACGCTACTTTGCTAA
B2: S-aptamer (anti-S protein aptamer) (ssDNA)
DNA: TTTTTTCAGCACCGACCTTGTGCTTTGGGAGTGCTGGTCCAAGGGCGTTAATGGACA

Tests used:
[1] = molecular target: SARS-CoV-2 nucleocapsid (N) protein (SARS-CoV-2, UniProt P0DTC9 P0DTC9:1-419); assay: competition; conditions: tags: Sino Biological; label: 5'-biotin
[2] = molecular target: SARS-CoV-2 spike (S) protein (SARS-CoV-2, UniProt P0DTC2 P0DTC2:14-1213); assay: competition; conditions: tags: Sino Biological; label: 5'-biotin

Binder	binding result [1]	binding result [2]
B1	binds	
B2		binds
